Source: patent US20220315648A1 (AC IMMUNE, published 2022)
Residue numbers refer to the chain shown, from its start. No end group written: not given here. *: point of attachment. Biotin = O=C1N[C@H]2[C@H](CS[C@H]2CCCCC(=O)*)N1

T1: TDP-6 (human)
T1 construct: One of the 40-66 aa linear peptides; also called TDP-43 peptide 140-200
T1 peptide: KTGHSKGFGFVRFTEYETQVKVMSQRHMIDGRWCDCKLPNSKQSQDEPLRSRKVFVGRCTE

T2: TP-21 (human)
T2 peptide: Biotin-KQSQDEPLRSRKVFV

T3: TP-48 (human)
T3 construct: 23 residues
T3 peptide: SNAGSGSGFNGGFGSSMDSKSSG

T4: TP-40 (human)
T4 peptide: Biotin-NNQNQGNMQREPNQA

T5: TP-23 (human)
T5 peptide: Biotin-TEDMTEDELREFFSQ

B1: ACI-7071-809D9-Ab2 (antibody, IgG2b, V domains shown)
VH: QVQLQQSGAELVRPGVSVKISCKGSGYKFTDYSMHWVKQSHTKSLEWIGVISTYYGDTTYNQKFKGKATITVDKSSSTAYMELARLTSEDSAIYYCATYGNFPASFSYWGQGTLVTVSA
VL: DIVMTQAAPSIPVTPGESVSISCRSSKSLLHSNGNTYLYWFLQRPGQSPQLLIYRMSNLASGVPDRFSGSGSGTAFTLRISRVEAEDVGVYYCMQHLEYPFTFGSGTKLEIK
notes: also called 809D9C2
B2: ACI-7071-712A6-Ab1 (antibody, IgG2c, V domains shown)
VH: QVQLQQSGAELVKPGTSVKLSCKASAYTFTEYTIHWIKQKSGQGLEWIGWFHPENDNIKYNENFKDKATLTADRSSSTVYMELSRLTSEDSAVYFCAGTSGYGDYWGQGTTLTVSS
VL: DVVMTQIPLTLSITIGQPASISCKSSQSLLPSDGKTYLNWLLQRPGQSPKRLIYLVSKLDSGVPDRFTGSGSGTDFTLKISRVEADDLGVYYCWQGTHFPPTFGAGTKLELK
notes: Mouse hybridoma antibody, IgG2c; also called 712A6B10
B3: ACI-7069-634H10-Ab2 (antibody, IgG2b, V domains shown)
VH: EVQLQQSGAELVKPGASVRLSCTASGFNIKDTYMHWVKQRPEQGLEWIGRIDPANSNTKFDPKFQGKATITSDTSSNTAYLQLSSLTSEDTAVYYCARFYGGSHWYFDVWGAGTTVTVSS
VL: DIKMTQSPSSMYASLGERVTITCKASQDIKSYLSWYQHKPWKSPKALIYYATSLADGVPSRFSGSGSGQDYSLTISSLESDDTATYYCLQQGESPYTFGGGTKLEIK
notes: also called 634H10H7
B4: ACI-7069-642D12-Ab1 (antibody, IgG2b, V domains shown)
VH: EVQLQQSGAELVKPGASVRLSCTASGFNIKDPYMHWVRQRPKQGLEWIGRIDPADGNTKYDPKFQGKATLTADTSSNVAYLHLSSLTSEDTAVYYCARFYGSSHWYFDVWGAGTTVTVSS
VL: B3 VL with S31R, H38Q, A46I, S65T, T83V
notes: also called 642D12B4
B5: ACI-7071-809F12-Ab1 (antibody, IgG2b, V domains shown)
VH: QVQLKESGPGLVAPSQSLSITCTVSGFSLNRNGVQWVRQPPGKGLEWLGVIWPGGSTNCNSALMSRLSISKDNSKSQVFLKMNSLHTDDTGIYYCARVGGNYVWDYNNYAWGQGTLVTVSA
VL: DVLMTQTPLSLPVSLGDQASISCRSSQNIVHSIGNTYLEWYLQKPGQSPKLLIYKVSNRFSGVPDRFSGSGSGTDFTLKISRVEAEDLGVYYCFQGSHVPYTFGGGTKLEIR
notes: also called 809F12D8
B6: ACI-7069-641H1-Ab2 (antibody, IgG2b, V domains shown)
VH: QVQLKESGPGLVAPSQSLSITCTVSGFSLTNYGVHWVRQPPGKGLEWLGLMWAGGSTNYNSALMSRLSISKDNSKSQVFLKMNSLQTDDTAMYYCVIYRTGFAYWGQGTLVTVSA
VL: B5 VL with N28S, S32T, Y101F, G105S, R112K
notes: also called 641H1E7
B7: ACI-7069-646B7-Ab1 (antibody, IgG2b, V domains shown)
VH: B6 VH with Y32F, L50I, R99K
VL: B5 VL with N28S, S32A, Y101F, G105S, R112K
notes: also called 646B7F7
B8: ACI-7069-636E5-Ab1 (antibody, IgG2b, V domains shown)
VH: EVHLVESGGDLVMPGGSLKLSCAASGFTFSNYGMSWVRQTPDKRLEWVATISSGGKYINYLDSLKGRFTISRDNAKNTLYLQMSSLKSEDTAMYYCAKDYGSGWAWFAYWGQGTLVTVSA
VL: QLVLTQSSSASFSLGASAKLTCTLSSQHSTYTIEWYQQQPLKPPKYVMELKKDGSHSTGDGIPDRFSGSSSGADRYLSISNIQPEDEAIYICGVGDTIKEQFVYVFGGGTKVTVL
notes: also called 636E5B8
B9: ACI-7069-633B12-Ab1 (antibody, IgG2b, V domains shown)
VH: EVQLQQSGPELVKPGASVKISCKTSGFTFTEYSMHWVKQSHGKSLEWIGGINPNNGGTSYNQKFKGKATLTVDKSSSTAYMELRSLTSEDSAVYYCARESWGQGTTLTVSS
VL: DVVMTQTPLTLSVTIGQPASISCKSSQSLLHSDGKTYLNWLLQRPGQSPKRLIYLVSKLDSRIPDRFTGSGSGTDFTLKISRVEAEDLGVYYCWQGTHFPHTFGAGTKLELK
notes: also called 633B12C8
B10: ACI-7069-631B2-Ab1 (antibody, IgG1, V domains shown)
VH: B9 VH with F27Y, M34I, K43E, N54D, S59R, E82D
VL: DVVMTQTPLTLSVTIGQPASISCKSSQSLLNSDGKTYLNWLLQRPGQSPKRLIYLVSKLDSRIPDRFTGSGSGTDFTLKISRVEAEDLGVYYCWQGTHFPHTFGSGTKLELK
notes: also called 631B2A2
B11: ACI-7069-642A10-Ab1 (antibody, IgG1, V domains shown)
VH: QVQLQQPGAELVKPGASVKLSCKASGYTFTKYWMHWVKQRPGQGLEWIGEINPSNGRTNYNEKFKSKATLTVDKSSSTAYMQLSSLTSEDSAVYYCARYMDYWGQGTSVTVSS
VL: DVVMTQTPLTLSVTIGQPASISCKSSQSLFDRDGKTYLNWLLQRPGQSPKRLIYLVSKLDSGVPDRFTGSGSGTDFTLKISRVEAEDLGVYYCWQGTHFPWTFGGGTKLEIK
notes: also called 642A10B11

Target: T6, human full length TDP-43 (FL TDP-43), recombinant, soluble (human, UniProt Q13148 1-414)
T6 construct: Antigen of Luminex, ELISA and SPR (soluble form); also called TDP-43 protein; Soluble TDP-43
T6 sequence (Q13148 whole entry): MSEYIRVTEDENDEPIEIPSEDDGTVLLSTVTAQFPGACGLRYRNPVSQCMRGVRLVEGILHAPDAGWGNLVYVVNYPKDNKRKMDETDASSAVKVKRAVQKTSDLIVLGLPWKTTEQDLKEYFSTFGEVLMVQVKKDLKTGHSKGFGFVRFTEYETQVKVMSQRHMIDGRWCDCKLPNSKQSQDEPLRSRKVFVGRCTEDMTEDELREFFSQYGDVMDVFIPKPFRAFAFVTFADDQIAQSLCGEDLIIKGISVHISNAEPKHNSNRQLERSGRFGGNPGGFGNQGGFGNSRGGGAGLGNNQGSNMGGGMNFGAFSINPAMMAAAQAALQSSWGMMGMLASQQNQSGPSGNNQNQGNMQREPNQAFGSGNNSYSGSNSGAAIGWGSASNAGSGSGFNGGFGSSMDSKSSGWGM
Test: Luminex, beads conjugated to FL TDP-43, antibody serial dilution
Method: Mice were euthanized and fusion with myeloma cells was performed using splenocytes from four individual mice. Screening for antibodies from the successfully fused hybridoma cell lines were performed as follows. Diluted (1:32) cell culture supernatants were analyzed using Luminex bead-based multiplex assay (Luminex, The Netherlands). Luminex beads were conjugated to FL TDP-43 and with capturing IgGs with anti-mouse IgG-Fc antibodies specific for the IgG1, IgG2a, IgG2b, IgG2c, and IgG3 subclasses (Jackson Immunoresearch, USA). Binding to beads conjugated to FL TDP-43 identified 386 hits derived from mice immunized with the FL TDP-43 liposomal vaccine.
Luminex assays with serial dilution of antibodies were performed as described before to determine half maximal effective concentration (EC50) of binding of antibodies to FL TDP-43. In summary, all tested antibodies bind to full length TDP-43 with high affinity.

EC50 | Binder
< 10 µM | B1
180 µM | B2
< 10 µM | B3
< 10 µM | B4
< 10 µM | B5
< 10 µM | B6
< 10 µM | B7
< 10 µM | B8
< 10 µM | B9
< 10 µM | B10

Target: T1, TDP-6
Test: indirect ELISA on TDP-43 peptides, antibody at 1 µg/ml

binding result | Binder
binds | B3

Target: T2, TP-21
Test: as above

binding result | Binder
binds | B4

Target: T3, TP-48
Test: as above

binding result | Binder
binds | B11

Target: T4, TP-40
Test: as above

binding result | Binder
binds | B8

Target: T5, TP-23
Test: as above

binding result | Binder
binds | B1
binds | B5
binds | B6
binds | B7
